Where a chain is given by its changes, count along the chain named.
Assays:
Test in all cases: cell_activity; CHO iGFFP reporter
LOX 3-4 m.186 = molecular target: T1, LOX 3-4 m.186 (artificial (I-CreI derived))
T1 chain: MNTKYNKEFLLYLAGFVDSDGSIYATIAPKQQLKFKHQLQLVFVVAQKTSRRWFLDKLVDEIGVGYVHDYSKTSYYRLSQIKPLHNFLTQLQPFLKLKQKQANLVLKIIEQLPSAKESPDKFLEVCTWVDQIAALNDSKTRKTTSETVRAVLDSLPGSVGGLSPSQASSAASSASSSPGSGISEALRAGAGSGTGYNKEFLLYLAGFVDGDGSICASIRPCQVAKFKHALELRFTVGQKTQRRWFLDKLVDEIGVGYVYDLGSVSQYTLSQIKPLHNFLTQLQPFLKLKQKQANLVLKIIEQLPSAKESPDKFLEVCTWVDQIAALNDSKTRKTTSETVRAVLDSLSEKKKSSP
Excerpt: (§1) A CHO cell reporter system (see WO/2012/167192, FIG. 3) was used to determine whether the engineered meganucleases generated in these studies could recognize and cleave the modified LOX 3-4 recognition sequences in Table 87. To perform the assay, a pair of CHO cell reporter lines were produced, which carried a non-functional Green Fluorescent Protein (GFP) gene expression cassette integrated into the genome of the cell. The GFP gene in each cell line was interrupted by a pair of recognition sequences such that intracellular cleavage of either recognition sequence by a meganuclease would stimulate a homologous recombination event resulting in a functional GFP gene. In both cell lines, one of the recognition sequences was derived from the LOX 3-4 recognition sequence (i.e., those sequences disclosed in Table 87), and the second recognition sequence was specifically recognized by a control meganuclease called “CHO 23/24.” CHO reporter cells comprising a recognition sequence derived from the LOX 3-4 recognition sequence and the CHO 23/24 recognition sequence are referred to herein as “test cells.”
(§2) Novel engineered meganucleases derived from the LOX 3-4x.109 meganuclease were prepared by making amino acid substitutions at one or more positions in the first subunit. These engineered meganucleases were then evaluated for cleavage of the LOX 3-4 recognition sequence modified to have a GTGC center sequence (SEQ ID NO: 463) in the CHO reporter assay according to Example 1. Novel meganucleases which were modified to comprise the residues recited in the tables below were capable of cleaving the LOX 3-4 recognition sequence having a GTGC four base pair center sequence.

LOX 3-4 m.180 = molecular target: T2, LOX 3-4 m.180 (artificial (I-CreI derived))
T2 chain: T1 chain with S19A, K48R, S50I, S71G, K72A, T73V
Excerpt: as §1, §2

LOX 3-4 m.181 = molecular target: T3, LOX 3-4 m.181 (artificial (I-CreI derived))
T3 chain: T1 chain with K48S, S50R, S71R, K72N, T73C, K139T
Excerpt: as §1, §2

LOX 3-4m.776 = molecular target: T4, LOX 3-4m.776 (artificial (I-CreI derived))
T4 chain: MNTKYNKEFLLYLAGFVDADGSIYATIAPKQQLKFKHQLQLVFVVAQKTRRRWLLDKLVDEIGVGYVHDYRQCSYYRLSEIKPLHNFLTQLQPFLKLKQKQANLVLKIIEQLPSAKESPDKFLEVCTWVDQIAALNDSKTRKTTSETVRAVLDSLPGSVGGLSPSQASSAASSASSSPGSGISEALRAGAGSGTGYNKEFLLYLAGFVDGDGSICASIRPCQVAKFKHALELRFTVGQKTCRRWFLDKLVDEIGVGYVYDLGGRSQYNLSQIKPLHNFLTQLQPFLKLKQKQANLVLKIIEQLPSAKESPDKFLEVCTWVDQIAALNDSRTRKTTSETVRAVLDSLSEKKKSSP
Excerpt: as §1
(§3) Novel engineered meganucleases derived from the LOX 3-4x.109 meganuclease were prepared by making amino acid substitutions at one or more positions in the first subunit and one or more positions in the second subunit. In addition, two engineered meganucleases were generated that inserted an additional R residue following position 264, which corresponds to position 73 of wild-type I-CreI. These engineered meganucleases were then evaluated for cleavage of the LOX 3-4 recognition sequence modified to have an ACAG center sequence (SEQ ID NO: 34) in the CHO reporter assay according to Example 1.

LOX 3-4m.775 = molecular target: T5, LOX 3-4m.775 (artificial (I-CreI derived))
T5 chain: T4 chain with L54I, R71G, Q72K, C73A, R330K
Excerpt: as §1, §3

LOX 3-4m.788 = molecular target: T6, LOX 3-4m.788 (artificial (I-CreI derived))
T6 chain: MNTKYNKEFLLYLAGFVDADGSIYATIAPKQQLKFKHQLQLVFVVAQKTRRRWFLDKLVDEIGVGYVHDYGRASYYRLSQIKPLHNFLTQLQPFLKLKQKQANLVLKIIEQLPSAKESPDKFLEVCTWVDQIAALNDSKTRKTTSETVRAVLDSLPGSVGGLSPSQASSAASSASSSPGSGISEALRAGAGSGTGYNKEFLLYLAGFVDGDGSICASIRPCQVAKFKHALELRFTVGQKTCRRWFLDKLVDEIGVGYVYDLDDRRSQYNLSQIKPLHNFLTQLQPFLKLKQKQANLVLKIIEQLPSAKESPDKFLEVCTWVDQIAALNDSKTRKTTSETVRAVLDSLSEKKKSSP
Excerpt: as §1, §3

LOX 3-4m.856 = molecular target: T7, LOX 3-4m.856 (artificial (I-CreI derived))
T7 chain: T4 chain with L54F, R71G, Q72T, E80Q
Excerpt: as §1, §3

LOX 3-4 m.203 = molecular target: T8, LOX 3-4 m.203 (artificial (I-CreI derived))
T8 chain: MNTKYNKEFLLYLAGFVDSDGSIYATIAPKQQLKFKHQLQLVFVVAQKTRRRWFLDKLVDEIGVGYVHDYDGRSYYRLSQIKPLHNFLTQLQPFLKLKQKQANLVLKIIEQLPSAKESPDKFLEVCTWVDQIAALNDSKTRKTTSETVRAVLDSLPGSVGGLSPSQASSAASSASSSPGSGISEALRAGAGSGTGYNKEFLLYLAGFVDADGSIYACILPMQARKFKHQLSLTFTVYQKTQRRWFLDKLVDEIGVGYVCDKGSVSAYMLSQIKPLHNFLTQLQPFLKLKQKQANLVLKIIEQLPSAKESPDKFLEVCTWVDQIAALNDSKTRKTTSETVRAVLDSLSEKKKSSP
Excerpt: as §1
as §2, with “GTGG” for “GTGC”, “496)” for “463)”

LOX 3-4 m.192 = molecular target: T9, LOX 3-4 m.192 (artificial (I-CreI derived))
T9 chain: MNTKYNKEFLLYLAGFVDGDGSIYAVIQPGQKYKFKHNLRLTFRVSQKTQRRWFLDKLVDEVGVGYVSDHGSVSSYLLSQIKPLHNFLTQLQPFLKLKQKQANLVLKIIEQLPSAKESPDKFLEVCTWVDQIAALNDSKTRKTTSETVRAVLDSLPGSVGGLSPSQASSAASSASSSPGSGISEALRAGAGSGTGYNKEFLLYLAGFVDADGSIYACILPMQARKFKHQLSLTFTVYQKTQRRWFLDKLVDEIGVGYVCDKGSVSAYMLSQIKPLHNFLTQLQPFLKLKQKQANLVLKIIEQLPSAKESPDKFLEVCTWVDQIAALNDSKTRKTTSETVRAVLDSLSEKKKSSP
Excerpt: as §1
as §2, with “GTGG” for “GTGC”, “496)” for “463)”

LOX 3-4 m.201 = molecular target: T10, LOX 3-4 m.201 (artificial (I-CreI derived))
T10 chain: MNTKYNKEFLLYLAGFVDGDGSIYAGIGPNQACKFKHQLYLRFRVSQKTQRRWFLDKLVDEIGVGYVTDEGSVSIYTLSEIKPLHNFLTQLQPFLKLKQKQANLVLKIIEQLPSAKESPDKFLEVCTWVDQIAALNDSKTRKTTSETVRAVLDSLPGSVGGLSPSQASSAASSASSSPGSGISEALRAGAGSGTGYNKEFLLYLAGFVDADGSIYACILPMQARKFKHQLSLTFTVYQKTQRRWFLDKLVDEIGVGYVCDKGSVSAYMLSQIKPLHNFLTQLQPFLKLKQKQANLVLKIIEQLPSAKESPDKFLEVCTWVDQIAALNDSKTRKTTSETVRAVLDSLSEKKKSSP
Excerpt: as §1
as §2, with “GTGG” for “GTGC”, “496)” for “463)”

B1: LOX 3-4 GTGC (dsDNA)
DNA 1: GTATAGCATGTGCTATACGAAG
DNA 2: CTTCGTATAGCACATGCTATAC
Binder B1 has an activity (LOX 3-4 m.186) of 13.4 % GFP, an activity (LOX 3-4 m.180) of 13.7 % GFP and an activity (LOX 3-4 m.181) of 13.8 % GFP.

B2: LOX 3-4 ACAG (dsDNA)
DNA 1: GTATAGCATACAGTATACGAAG
DNA 2: CTTCGTATACTGTATGCTATAC
With B2 the activity (LOX 3-4m.776) was 10.4 % GFP, the activity (LOX 3-4m.775) was 12.2 % GFP and the activity (LOX 3-4m.788) was 10.5 % GFP. For the same binder, the activity (LOX 3-4m.856) was 10.8 % GFP.

B3: LOX 3-4 GTGG (dsDNA)
DNA 1: GTATAGCATGTGGTATACGAAG
DNA 2: CTTCGTATACCACATGCTATAC
B3 was tested, and the activity (LOX 3-4 m.203) was 12.1 % GFP, the activity (LOX 3-4 m.192) was 11.9 % GFP and the activity (LOX 3-4 m.201) was 11 % GFP.

From patent US20220195407, “OPTIMIZATION OF ENGINEERED MEGANUCLEASES FOR RECOGNITION SEQUENCES” (Precision BioSciences, Inc., published 2022)
